From US20250129175A1 (SUNSHINE GUOJIAN PHARMACEUTICAL SHANGHAI, published 2025) come the findings set out here.

The term Kd denotes the equilibrium constant for the complex coming apart. For orientation: koff means the first-order rate constant of dissociation. A low value points to a long-lived complex. The kon is the rate constant with which the complex forms. Low values mean slow association, high ones fast association. In general, EC50 refers to the concentration that produces a half-maximal response. The low end stands for higher potency in that assay, the high end for lower potency in that assay.

One assay addresses T1, Human CD38 protein (human, UniProt P28907 43-300, limits assumed, biotinylated with EZ-Link NHS-LC-Biotin (sites not given)).
T1 construct: Biotinylated and captured on a Biacore CAP chip; also called CD38-biotin; Biotin-CD38
Put plainly: SPR, Biacore 8K, biotinylated CD38 captured on CAP chip, antibody as analyte, 1:1 model. In general terms: SPR reads the build-up and loss of mass on a sensor chip optically.

The next assay deals with T2, CD38-ECD-Cyno (cynomolgus monkey, UniProt Q5VAN0 44-301).
T2 construct: Recombinant protein expressed in HEK293F cells and purified on Ni-NTA; Coated on the ELISA plate at 10 ng/well; also called cynomolgus monkey CD38; cynomolgus monkeys CD38; not shown: polyhistidine tag added at the end of the gene
Description: ELISA, plate coated with CD38-ECD-Cyno (10 ng/well), anti-human Fc-HRP detection. Here is the method:
The microplates were coated with corresponding recombinant proteins and closed with PBST containing 1% bovine serum albumin (PBST is a phosphate buffer containing 0.05% Tween-20). The tested antibody was diluted in a gradient and it was transferred to a microplate coated with recombinant protein. The sample was incubated at room temperature for half an hour. After washing the plate, appropriately diluted HRP (Horseradish Peroxidase) labeled sheep anti human antibody (Fc specific, purchased from Sigma) was added and incubated at room temperature for half an hour. After washing, 100 μL color developing solution with TMB(3,3′,5,5′-Tetramethylbenzidine) as substrate was added to each well and incubated at room temperature for 1˜5 min. The reaction was terminated by adding 50 μL termination solution (2 M H₂SO₄). The board reader (SpectraMax 190) reads OD450. GraphPad Prism7 was used for mapping and data analysis, and EC50/IC50 was calculated.
Microplate (10 ng/well) was coated with CD38-ECD-Cyno, and the binding ability of CD38-ECD-Cyno to 50G12-Hu-IgG1, OKT10-Hu-IgG1, Daratumumab-IgG1, and Isatuximab-IgG1 was determined by ELISA.
In general terms: ELISA stands for enzyme-linked immunosorbent assay.

T2 sequence (Q5VAN0 44-301): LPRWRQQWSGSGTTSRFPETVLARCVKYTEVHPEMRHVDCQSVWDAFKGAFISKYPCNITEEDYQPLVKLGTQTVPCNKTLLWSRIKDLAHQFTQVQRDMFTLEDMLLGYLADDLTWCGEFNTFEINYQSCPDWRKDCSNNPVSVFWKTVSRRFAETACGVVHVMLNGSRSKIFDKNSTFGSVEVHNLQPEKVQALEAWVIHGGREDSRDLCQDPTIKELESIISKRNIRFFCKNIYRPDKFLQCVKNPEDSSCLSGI

B1: 50G12-Hu-IgG1 (antibody)
heavy: not shown
light: DIQMTQSPSSLSASVGDRVTITCTASSSVSSSYLHWYQQKPGKAPKLWMYGTSNLASGVPSRFSGSGSGTDYTLTISSLQPEDFATYYCHRYHRSPWTFGQGTKVEIKRTVAAPSVFIFPPSDEQLKSGTASVVCLLNNFYPREAKVQWKVDNALQSGNSQESVTEQDSKDSTYSLSSTLTLSKADYEKHKVYACEVTHQGLSSPVTKSFNRGEC
notes: Humanized anti-human CD38 IgG1/kappa, expressed in HEK293F cells and purified on Protein A; also called 50G12-Humanized; unmutated antibody 50G12-Hu-IgG1
On to B1, for which, in the assay with Human CD38 protein, binding was characterised by a dissociation constant (Kd) of 3.58 nM, the koff is 0.000613 s⁻¹ and the kon turned out to be 171000 M⁻¹ s⁻¹.

B2: 50G12-L309W-E345R (antibody, human IgG1, kappa)
heavy: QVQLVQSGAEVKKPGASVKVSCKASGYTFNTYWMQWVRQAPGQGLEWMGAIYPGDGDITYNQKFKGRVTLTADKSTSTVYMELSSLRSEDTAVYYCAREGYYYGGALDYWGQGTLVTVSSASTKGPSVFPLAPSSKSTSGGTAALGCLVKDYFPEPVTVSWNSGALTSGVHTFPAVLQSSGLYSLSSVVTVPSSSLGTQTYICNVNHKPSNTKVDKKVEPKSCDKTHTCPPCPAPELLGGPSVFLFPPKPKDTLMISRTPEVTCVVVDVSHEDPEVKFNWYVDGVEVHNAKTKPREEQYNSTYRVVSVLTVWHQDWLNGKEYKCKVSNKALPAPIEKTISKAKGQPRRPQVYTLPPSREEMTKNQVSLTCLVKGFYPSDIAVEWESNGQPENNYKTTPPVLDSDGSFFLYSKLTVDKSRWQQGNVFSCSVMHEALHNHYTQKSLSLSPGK
light: DIQMTQSPSSLSASVGDRVTITCTASSSVSSSYLHWYQQKPGKAPKLWMYGTSNLASGVPSRFSGSGSGTDYTLTISSLQPEDFATYYCHRYHRSPWTFGQGTKVEIKRTVAAPSVFIFPPSDEQLKSGTASVVCLLNNFYPREAKVQWKVDNALQSGNSQESVTEQDSKDSTYSLSSTLTLSKADYEKHKVYACEVTHQGLSSPVTKSFNRGEC
notes: also called 50G12-Hu-IgG1-L309W-E345R
For the molecule B2, in the assay with Human CD38 protein, the Kd was 2.99 nM, the off-rate constant (koff) was determined as 0.00103 s⁻¹ and the kon was 346000 M⁻¹ s⁻¹.

B3: OKT10-Hu-IgG1 (antibody, V domains shown)
VH: EVQLVESGGGLVQPGGSLRLSCAASGFDFSRSWMNWVRQAPGKGLEWVSEINPDSSTINYTTSLKDRFTISRDNAKNSLYLQMNSLRAEDTAVYYCARYGNWFPYWGQGTLVTVSS
VL: DIQMTQSPSSLSASVGDRVTITCKASQNVDTNVAWYQQKPGKAPKALIYSASYRYSGVPSRFSGSGSGTDFTLTISSLQPEDFATYYCQQYDSYPLTFGQGTKVEIKR
notes: Humanized anti-human CD38 IgG1/kappa; also called humanized OKT10
B3 had an EC50 in the assay with CD38-ECD-Cyno of 0.132 nM. In other words, the sub-nanomolar range.
